# Experimental data taken from the RNAGym collection of RNA variant scans (doi:10.7554/elife.90254).
# B1: LINE1-mini (parent)
# chain: GGCAGAGCUCAACACAGCGUGGCAAAGUGGCUGUGGCUAGACUGCC
# Variants of: B1
# Experiment: self-cleavage, relative activity (ratio to wild type); higher = more cleavage; in vitro, sequencing; the parent is a self-cleaving ribozyme
row,Variant,self-cleavage
1,C18G U34G,0.02
2,C18G U34A,0.05
3,C18G U34C,0.03
4,G19A G44C,0.48
5,G19A G44U,0.51
6,G19A G44A,0.75
7,G19A C46U,1.74
8,G19A C46G,1.53
9,G19A C46A,0.81
10,C18A G30C,1.99
11,C18A G30U,1.55
12,C18A G30A,1.63
13,C18U G21A,2.7
14,C18U G21U,2.05
15,C18U G21C,1.13
16,C18G U38G,0.02
17,C18G U38C,0.16
18,C18G U38A,0.38
19,C18A C37U,0.07
20,C18A C37A,0.05
21,C18A C37G,0.07
22,G19A C31U,0.6
23,G19A C31A,0.46
24,G19A C31G,0.17

row,Variant,self-cleavage
1,C18G U28C,0.36
2,C18G U28A,0.39
3,C18G U28G,0.22
4,C18A A25U,1.21
5,C18A A25G,0.19
6,C18A A25C,0.36
7,C18G G44C,0.1
8,C18G G44U,0.05
9,C18G G44A,0.07
10,C18G C31A,0.06
11,C18G C31U,0.02
12,C18G C31G,0.04
13,G19A G27A,1.19
14,G19A G27U,0.93
15,G19A G27C,0.53
16,G19A,1.5
17,C18A U43C,0.05
18,C18A U43A,0.08
19,C18A U43G,0.26
20,G19A G36C,0.16
21,G19A G36A,0.18
22,G19A G36U,0.09
23,C18A,0.85
24,C18G,0.52

row,Variant,self-cleavage
1,C18U,1.21
2,C18G U32A,0.05
3,C18G U32G,0.06
4,C18G U32C,0.15
5,C18A U38A,0.49
6,C18A U38G,0.02
7,C18A U38C,0.09
8,C18A A39G,0.05
9,C18A A39U,0.76
10,C18A A39C,0.06
11,G19A A39G,0.1
12,G19A A39C,0.75
13,G19A A39U,1.35
14,C18U G36A,0.15
15,C18U G36C,0.06
16,C18U G36U,0.06
17,C18A G22U,1.74
18,C18A G22C,0.92
19,C18A G22A,1.07
20,G19A U20C,0.46
21,G19A U20A,0.51
22,G19A U20G,0.59
23,C18G A41G,0.08
24,C18G A41U,0.32

row,Variant,self-cleavage
1,C18G A41C,0.03
2,C18A C23G,0.76
3,C18A C23U,1.29
4,C18A C23A,1.02
5,C18U C46A,0.46
6,C18U C46G,1.24
7,C18U C46U,1.43
8,C18G G36U,0.07
9,C18G G36C,0.08
10,C18G G36A,0.1
11,G17U U38A,0.17
12,G17U U38G,0.08
13,G17U U38C,0.04
14,C18U A25G,0.26
15,C18U A25C,0.86
16,C18U A25U,0.7
17,G19A A26U,1.89
18,G19A A26C,0.52
19,G19A A26G,0.98
20,G19A A41G,0.29
21,G19A A41C,0.08
22,G19A A41U,0.77
23,C18G G22C,0.12
24,C18G G22U,0.87

row,Variant,self-cleavage
1,C18G G22A,0.82
2,C18U A41C,0.05
3,C18U A41U,0.92
4,C18U A41G,0.26
5,G17U U28G,0.1
6,G19A G35A,0.18
7,G19A G35U,0.14
8,G19A G35C,0.21
9,C18G A24U,0.76
10,C18G A24C,0.17
11,C18G A24G,0.44
12,C18G G35U,0.08
13,C18G G35A,0.07
14,C18U A24G,1.01
15,C18U A24U,0.97
16,C18U A24C,0.39
17,C18A U34A,0.03
18,C18A U34G,0.04
19,C18A U34C,0.06
20,G19A C42G,0.04
21,G19A C42U,0.43
22,G19A C42A,0.34
23,C18G C46U,0.4
24,C18G C46G,0.25

row,Variant,self-cleavage
1,C18G C46A,0.43
2,G19A A25G,0.58
3,G19A A25C,1.21
4,G19A A25U,1.66
5,G19A G29A,1.14
6,G19A G29U,0.94
7,G19A G29C,1.31
8,C18U G29C,0.86
9,C18U G29A,1.77
10,C18U G29U,1.87
11,C18U U20C,0.98
12,C18U U20G,0.41
13,C18U U20A,0.61
14,C18U U38A,0.75
15,C18U U38C,0.27
16,C18U U38G,0.01
17,C18G G19A,0.31
18,C18G G19C,0.83
19,C18G G19U,0.56
20,C18G G40A,0.05
21,C18G G40C,0.05
22,C18G G40U,0.06
23,C18G G30C,1
24,C18G G30A,0.92

row,Variant,self-cleavage
1,C18G G30U,0.62
2,C18A G44A,0.2
3,C18A G44U,0.08
4,C18A G44C,0.22
5,C18A G40A,0.05
6,C18A G40C,0.03
7,C18A G40U,0.06
8,C18U G33C,0.04
9,C18U G33A,0.09
10,C18U G33U,0.05
11,C18A U32G,0.04
12,C18A U32C,0.16
13,C18A U32A,0.05
14,G19A C45G,0.38
15,G19A C45A,0.79
16,G19A C45U,1.74
17,G19A G40C,0.07
18,G19A G40U,0.16
19,G19A G40A,0.11
20,C18A C31G,0.04
21,C18A C31A,0.16
22,C18A C31U,0.04
23,C18A C42G,0.04
24,C18A C42A,0.12

row,Variant,self-cleavage
1,C18A C42U,0.13
2,C18U U28G,0.43
3,C18U U28C,1.2
4,C18U U28A,0.86
5,C18U A39C,0.16
6,C18U A39G,0.08
7,C18U A39U,0.78
8,G19A G22A,0.62
9,G19A G22C,0.71
10,G19A G22U,0.99
11,C18A G19U,0.31
12,C18A G19C,1.27
13,C18A G19A,1.05
14,C18U C42U,0.17
15,C18U C42G,0.05
16,C18U C42A,0.09
17,C18U G30A,1.78
18,C18U G30C,1.82
19,C18U G30U,0.4
20,C18A C45A,0.24
21,C18A C45G,0.14
22,C18A C45U,0.58
23,C18A G33C,0.04
24,C18A G33U,0.04

row,Variant,self-cleavage
1,C18A G33A,0.03
2,C18G G21A,0.77
3,C18G G21U,1.38
4,C18G G21C,0.62
5,C18U U32A,0.04
6,C18U U32G,0.09
7,C18U U32C,0.16
8,C18A G27A,1.47
9,C18A G27U,1.04
10,C18A G27C,0.62
11,C18A A24G,0.56
12,C18A A24C,0.18
13,C18A A24U,0.67
14,C18A C46A,0.95
15,C18A C46U,0.65
16,C18A C46G,0.47
17,C18G C42G,0.04
18,C18G C42A,0.07
19,C18G C42U,0.05
20,G19A G33A,0.11
21,G19A G33C,0.05
22,G19A G33U,0.15
23,C18G A39C,0.06
24,C18G A39U,0.47

row,Variant,self-cleavage
1,C18G A39G,0.07
2,C18U C31A,0.08
3,C18U C31G,0.05
4,C18U C31U,0.04
5,C18G G33A,0.04
6,C18G G33C,0.03
7,C18G G33U,0.07
8,C18G G29A,1.38
9,C18G G29U,0.96
10,C18G G29C,0.49
11,G19A G30U,2.03
12,G19A G30A,1.99
13,G19A G30C,1.5
14,C18U G44C,0.28
15,C18U G44U,0.07
16,C18U G44A,0.22
17,G17U U43C,0.06
18,G17U U43A,0.09
19,G17U U43G,0.06
20,G19A C37U,0.05
21,G19A C37G,0.03
22,G19A C37A,0.07
23,C18A G29U,1.07
24,C18A G29A,0.69

row,Variant,self-cleavage
1,C18A G29C,0.83
2,G19A A24U,2.05
3,G19A A24G,1.45
4,G19A A24C,0.61
5,C18U G35A,0.1
6,C18U G35U,0.08
7,C18U G35C,0.03
8,C18U U43A,0.06
9,C18U U43G,0
10,C18U U43C,0.09
11,C18G G27U,0.61
12,C18G G27C,0.38
13,C18G G27A,1.04
14,C18U C45A,0.79
15,C18U C45U,1.45
16,C18U C45G,0.27
17,C18G C45A,0.26
18,C18G C45G,0.09
19,C18G C45U,0.13
20,C18U G22U,1.21
21,C18U G22C,1.47
22,C18U G22A,1.76
23,C18A U20C,0.31
24,C18A U20G,0.61

row,Variant,self-cleavage
1,C18A U20A,0.29
2,G17U U32A,0.08
3,G17U U32G,0.09
4,G17U U32C,0.18
5,C18A A26G,0.57
6,C18A A26C,2.92
7,C18A A26U,0.69
8,G19A G21C,0.39
9,G19A G21U,0.72
10,G19A G21A,2.83
11,C18G C37G,0.06
12,C18G C37A,0.07
13,C18G C37U,0.09
14,C18U C37A,0.09
15,C18U C37U,0.07
16,C18U C37G,0.04
17,C18U G19U,1.14
18,C18U G19A,1.13
19,C18U G19C,0.56
20,C18G C23A,0.64
21,C18G C23U,0.89
22,C18G C23G,0.66
23,C18A G21A,1.86
24,C18A G21U,0.77

row,Variant,self-cleavage
1,C18A G21C,0.96
2,C18U G40C,0.04
3,C18U G40A,0.1
4,C18U G40U,0.12
5,C18A G35C,0.05
6,C18A G35U,0.07
7,C18A G35A,0.05
8,C18G U20G,0.41
9,C18G U20C,0.4
10,C18G U20A,0.41
11,C18A U28A,0.7
12,C18A U28G,0.5
13,C18A U28C,0.49
14,G19A C23A,0.96
15,G19A C23G,0.41
16,G19A C23U,1.06
17,C18U A26C,1.39
18,C18U A26U,1.72
19,C18U A26G,0.65
20,C18A G36A,0.13
21,C18A G36C,0.03
22,C18A G36U,0.07
23,C18G A25C,0.2
24,C18G A25U,0.51

row,Variant,self-cleavage
1,C18G A25G,0.13
2,C18G A26C,0.86
3,C18G A26U,0.42
4,C18G A26G,0.22
5,C18A A41U,0.34
6,C18A A41G,0.13
7,C18A A41C,0.05
8,C18U U34C,0.07
9,C18U U34A,0.07
10,C18U U34G,0.03
11,C18U G27A,0.84
12,C18U G27U,1.63
13,C18U G27C,0.55
14,C18U C23A,1.27
15,C18U C23G,1.56
16,C18U C23U,1.07
17,C18G U43C,0.06
18,C18G U43A,0.07
19,C18G U43G,0.13
20,G17U U34C,0.05
21,G17U U34A,0.05
22,G17U U34G,0.04
